Measured values: the supplement of paper PMC7877785
± gives the uncertainty stated by the source.

Experiment: self-splicing fitness, log relative to wild type (ln ratio); higher = more splicing; Tetrahymena group I intron in knt gene, E. coli kanamycin selection, DiMSum; sequences stand for … in CUCUCU…GGAGGGAAAAGUUAUCAGGCAUGCACCUGGUAGCUAGUCUUUAAACCAAUAGAUUGCAUCGGUUUAAAAGGCAAGACCGUCAAAUUGCGGGAAAGGGGUCAACAGCCGUUCAGUACCAAGUCUCAGGGGAAACUUUGAGAUGGCCUUGCAAAGGGUAUGGUAAUAAGCUGACGGACAUGGUCCUAACCACGCAGCCAAGUCCUAAGUCAACAGAUCUUCUGUUGAUAUGGAUGCAGUUCACAGACUAAAUGUCGGUCGGGGAAGAUGUAUUCUUCUCAUAAGAUAUAGUCGGACCUCUCCUUAAUGGGAGCUAGCGGAUGAAGUGAUGCAACACUGGAGCCGCUGGGAACUAAUUUGUAUGCGAAAGUAUAUUGAUUAGUUUUGGAGUACUCGUGGUCG
Summary of the method: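 Fitness was computed with DiMSum as the error-weighted combination of replicate fold changes, kanamycin versus none, each normalised to wild type. The library randomised all eight intron nucleotides of the P1ex region, with the intron placed in the knt kanamycin-resistance gene on pET-22b(+) in E. coli BL21(DE3). Six replicate transformations were grown overnight at 37°C or 30°C on LB agar with or without 25 μg/mL kanamycin, plus 100 μg/mL carbenicillin, 50 μM IPTG and 0.2% rhamnose. Pooled colonies were amplicon-sequenced on an Illumina HiSeq 2500.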

Sequence | self-splicing fitness (ln) (30 °C) | self-splicing fitness (ln) (37 °C)
UAGCAGCAAUAUUACGCCCA | -0.744 ± 0.3 | 0.445 ± 0.47
GCAUAGCAAUAUUACGAGUC | -2.44 ± 0.12 | -2.7 ± 0.17
AUUAAGCAAUAUUACGGGUA | -2.2 ± 0.17 | -0.0398 ± 0.12
UGUGAGCAAUAUUACGUCGU | -2.1 ± 0.3 | –
GCAUAGCAAUAUUACGUUGA | -2.41 ± 0.12 | -1.76 ± 0.1
ACCAAGCAAUAUUACGAGCC | -3.61 ± 0.2 | -1.08 ± 0.15
UGUAAGCAAUAUUACGCAGC | -3.28 ± 0.35 | -1.44 ± 0.19
ACACAGCAAUAUUACGGUGU | -5.22 ± 0.26 | -2.92 ± 0.21
GAACAGCAAUAUUACGCUAC | -4.08 ± 0.34 | -1.64 ± 0.37
AGAGAGCAAUAUUACGAUUA | -2.43 ± 0.25 | -2.57 ± 0.32
GGGAAGCAAUAUUACGCUCA | – | -0.0289 ± 0.38
CUAUAGCAAUAUUACGACAU | -4.157 ± 0.031 | -3.08 ± 0.045
AUAGAGCAAUAUUACGAAGU | -0.306 ± 0.1 | -0.662 ± 0.14
CCUAAGCAAUAUUACGGAUA | -4.31 ± 0.26 | -4.12 ± 0.31
ACGUAGCAAUAUUACGCGGA | -2.05 ± 0.18 | -0.895 ± 0.11
CCGCAGCAAUAUUACGCUGG | -2.24 ± 0.11 | -2.92 ± 0.24
AGAUAGCAAUAUUACGGACG | -0.861 ± 0.15 | -0.892 ± 0.15
AGUUAGCAAUAUUACGUGGG | -4 ± 0.29 | -3.07 ± 0.31
CGGGAGCAAUAUUACGCUCG | – | -0.772 ± 0.32

Sequence | self-splicing fitness (ln) (30 °C) | self-splicing fitness (ln) (37 °C)
GCAAAGCAAUAUUACGGUUU | -1.26 ± 0.063 | -0.4 ± 0.082
CUUGAGCAAUAUUACGUGUA | -2.71 ± 0.14 | -2.84 ± 0.2
UUAUAGCAAUAUUACGAACG | -0.792 ± 0.17 | -0.293 ± 0.21
CGACAGCAAUAUUACGACAA | -2.08 ± 0.13 | -1.27 ± 0.13
CGGCAGCAAUAUUACGUGGC | -3.19 ± 0.33 | -2.02 ± 0.23
AGCGAGCAAUAUUACGAACG | -2.14 ± 0.29 | -1.5 ± 0.2
GGAAAGCAAUAUUACGUGAU | -2.79 ± 0.086 | -1.76 ± 0.089
GGCCAGCAAUAUUACGUUAA | -3.51 ± 0.29 | -2.62 ± 0.19
UACGAGCAAUAUUACGCCUA | -1.81 ± 0.15 | -0.823 ± 0.16
UCAAAGCAAUAUUACGCGAG | -0.91 ± 0.12 | -0.54 ± 0.14
AUAAAGCAAUAUUACGCGGC | -2.79 ± 0.21 | -0.109 ± 0.19
CCCAAGCAAUAUUACGAUAU | -3.29 ± 0.19 | -3.25 ± 0.15
GAGAAGCAAUAUUACGAUUU | -0.24 ± 0.081 | 0.493 ± 0.087
ACUCAGCAAUAUUACGCUCC | -0.601 ± 0.12 | -0.848 ± 0.16
CCCCAGCAAUAUUACGAGCA | -1.5 ± 0.14 | -3.13 ± 0.34
CUGAAGCAAUAUUACGUCCU | -3.45 ± 0.23 | -2.39 ± 0.23
GAAUAGCAAUAUUACGCAGA | -2.53 ± 0.16 | -1.34 ± 0.14
GCAAAGCAAUAUUACGGCUA | -0.821 ± 0.07 | -0.279 ± 0.073
UAGCAGCAAUAUUACGUCGA | -1.12 ± 0.071 | -0.528 ± 0.082
